Assay results: US20170254813A1 (VENTANA MEDICAL SYSTEMS, published 2017)

Assays:
[1] = biological target: T1, CD21 (complement receptor type 2) (UniProt P20023 21-1033, limits assumed); test: in situ proximity assay on FFPE normal tonsil sections
T1 construct: Endogenous protein in tissue section
T1 sequence (looked up): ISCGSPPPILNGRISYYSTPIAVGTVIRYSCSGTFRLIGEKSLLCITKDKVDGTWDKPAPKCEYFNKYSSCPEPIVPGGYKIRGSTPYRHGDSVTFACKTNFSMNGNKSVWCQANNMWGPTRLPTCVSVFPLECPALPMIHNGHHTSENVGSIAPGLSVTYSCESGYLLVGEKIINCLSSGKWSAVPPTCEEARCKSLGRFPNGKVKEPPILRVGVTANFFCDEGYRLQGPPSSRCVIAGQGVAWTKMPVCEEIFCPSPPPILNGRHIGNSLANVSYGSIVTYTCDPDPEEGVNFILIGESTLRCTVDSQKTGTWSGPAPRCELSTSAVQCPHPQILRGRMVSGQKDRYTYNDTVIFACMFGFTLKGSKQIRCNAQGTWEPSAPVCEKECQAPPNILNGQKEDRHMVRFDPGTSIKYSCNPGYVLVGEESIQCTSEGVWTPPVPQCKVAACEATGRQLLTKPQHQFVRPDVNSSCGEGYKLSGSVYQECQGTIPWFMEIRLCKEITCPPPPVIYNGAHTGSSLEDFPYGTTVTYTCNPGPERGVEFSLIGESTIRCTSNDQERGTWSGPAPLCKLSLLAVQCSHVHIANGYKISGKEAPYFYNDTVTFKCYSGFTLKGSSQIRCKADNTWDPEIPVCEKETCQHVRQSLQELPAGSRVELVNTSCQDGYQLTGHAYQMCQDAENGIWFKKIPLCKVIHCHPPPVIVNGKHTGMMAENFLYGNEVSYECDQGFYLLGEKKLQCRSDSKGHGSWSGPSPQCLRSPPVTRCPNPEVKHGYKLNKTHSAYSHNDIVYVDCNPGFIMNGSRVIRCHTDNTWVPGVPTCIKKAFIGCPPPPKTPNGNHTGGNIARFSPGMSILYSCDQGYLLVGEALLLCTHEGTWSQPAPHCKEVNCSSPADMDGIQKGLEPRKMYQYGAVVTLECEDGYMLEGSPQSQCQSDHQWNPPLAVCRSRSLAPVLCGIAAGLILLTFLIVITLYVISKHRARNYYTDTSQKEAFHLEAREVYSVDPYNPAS
Experimental: (§1) IHC staining was performed on a VENTANA BenchMark XT automated slide-processing system (Ventana). For all IHC staining, FFPE sections were first deparaffinization with EZ Prep solution (Ventana) and washed with reaction buffer. Antigen retrieval was carried out in Cell Conditioning 1 (Ventana) (100° C.; 92 minutes) and again washed with 1× reaction buffer (Ventana). […] After thorough wash with reaction buffer, secondary antibody conjugates of GAR-PEG₈-SS-HA-N₃ and GAM-PEG₄-CCH (100 μL of 10 μg/mL each) were added to slides and incubated at 37° C. for 32 minutes. The slides were washed in reaction buffer and water before a drop of 100 μL of HEPES buffer (0.15 M, pH 7.4) was added to the slides. To initiate the azide-acetylene click reaction, 100 μL of Cu(I) catalyst solution was added onto the slide. One working example of the Cu(I) solution contained 0.6 mM CuSO₄, 3 mM THPTA, 10 mM HEPES (pH=7.4), 40% DMSO (v/v) and 4 mM of sodium ascorbate (freshly made and added to CuSO₄ immediately before adding to slide). The click reaction was allowed to proceed for 32 minutes and the slides were washed thoroughly in reaction buffer. […] For chromogenic based detection using diaminobenzidine (DAB), ready-to-use solutions of DAB, H₂O₂ and Copper from an [sequence] […]

PMS2 = biological target: T2, PMS2 (UniProt P54278 1-862); test: in situ proximity assay on Hela cell xenograft sections
T2 construct: Endogenous protein of Hela cells in xenograft
T2 sequence (looked up): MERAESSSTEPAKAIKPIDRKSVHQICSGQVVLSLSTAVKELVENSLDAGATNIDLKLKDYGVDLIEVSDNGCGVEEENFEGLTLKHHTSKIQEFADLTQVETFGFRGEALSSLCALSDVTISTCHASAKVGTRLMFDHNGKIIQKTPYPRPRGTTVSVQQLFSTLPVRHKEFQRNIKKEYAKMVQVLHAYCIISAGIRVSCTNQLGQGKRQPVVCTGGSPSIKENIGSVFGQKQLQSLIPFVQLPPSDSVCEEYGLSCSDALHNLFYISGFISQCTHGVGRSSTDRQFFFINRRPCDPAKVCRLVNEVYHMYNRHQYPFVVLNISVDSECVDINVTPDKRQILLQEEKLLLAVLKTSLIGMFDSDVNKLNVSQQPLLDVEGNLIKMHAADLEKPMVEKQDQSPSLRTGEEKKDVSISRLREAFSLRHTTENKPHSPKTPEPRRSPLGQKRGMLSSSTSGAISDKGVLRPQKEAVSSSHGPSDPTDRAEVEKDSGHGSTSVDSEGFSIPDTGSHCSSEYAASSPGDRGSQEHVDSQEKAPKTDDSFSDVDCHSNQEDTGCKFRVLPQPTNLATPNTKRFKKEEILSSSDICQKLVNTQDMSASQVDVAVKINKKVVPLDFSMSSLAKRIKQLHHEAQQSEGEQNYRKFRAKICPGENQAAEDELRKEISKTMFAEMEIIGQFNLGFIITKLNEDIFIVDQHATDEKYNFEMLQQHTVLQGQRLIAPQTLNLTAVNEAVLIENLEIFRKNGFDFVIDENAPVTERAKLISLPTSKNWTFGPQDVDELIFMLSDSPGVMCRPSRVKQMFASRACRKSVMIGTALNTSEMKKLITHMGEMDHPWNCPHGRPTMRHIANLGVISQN

β-catenin = biological target: T3, β-catenin (UniProt P35222 2-781); test: in situ proximity assay (chemical ligation and hapten transfer) on FFPE tonsil and skin sections
T3 construct: Endogenous protein in tissue section; also called beta-catenin
T3 sequence (looked up): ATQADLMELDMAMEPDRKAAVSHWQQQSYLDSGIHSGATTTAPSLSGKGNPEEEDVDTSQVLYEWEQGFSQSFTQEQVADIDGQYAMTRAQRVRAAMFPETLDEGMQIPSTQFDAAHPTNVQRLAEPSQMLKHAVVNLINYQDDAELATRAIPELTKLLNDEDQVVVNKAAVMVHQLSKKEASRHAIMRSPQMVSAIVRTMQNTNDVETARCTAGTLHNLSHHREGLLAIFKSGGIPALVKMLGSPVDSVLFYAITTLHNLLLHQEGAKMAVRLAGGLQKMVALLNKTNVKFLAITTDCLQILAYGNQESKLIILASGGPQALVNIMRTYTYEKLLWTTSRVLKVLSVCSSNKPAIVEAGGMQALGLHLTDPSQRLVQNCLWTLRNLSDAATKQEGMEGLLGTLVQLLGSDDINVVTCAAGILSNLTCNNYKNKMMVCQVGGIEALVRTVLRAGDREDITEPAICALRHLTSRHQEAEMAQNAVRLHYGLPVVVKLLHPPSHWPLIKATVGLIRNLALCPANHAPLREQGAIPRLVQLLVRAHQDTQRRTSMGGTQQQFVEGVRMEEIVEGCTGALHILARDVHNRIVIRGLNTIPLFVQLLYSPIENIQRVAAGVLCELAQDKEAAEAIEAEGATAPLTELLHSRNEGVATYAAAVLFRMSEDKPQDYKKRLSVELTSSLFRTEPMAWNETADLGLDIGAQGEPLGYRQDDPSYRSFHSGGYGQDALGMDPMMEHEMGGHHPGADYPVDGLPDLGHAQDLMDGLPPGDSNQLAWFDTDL
Experimental: as §1

B1: CD19 (receptor, UniProt P15391 20-556, looked up)
chain: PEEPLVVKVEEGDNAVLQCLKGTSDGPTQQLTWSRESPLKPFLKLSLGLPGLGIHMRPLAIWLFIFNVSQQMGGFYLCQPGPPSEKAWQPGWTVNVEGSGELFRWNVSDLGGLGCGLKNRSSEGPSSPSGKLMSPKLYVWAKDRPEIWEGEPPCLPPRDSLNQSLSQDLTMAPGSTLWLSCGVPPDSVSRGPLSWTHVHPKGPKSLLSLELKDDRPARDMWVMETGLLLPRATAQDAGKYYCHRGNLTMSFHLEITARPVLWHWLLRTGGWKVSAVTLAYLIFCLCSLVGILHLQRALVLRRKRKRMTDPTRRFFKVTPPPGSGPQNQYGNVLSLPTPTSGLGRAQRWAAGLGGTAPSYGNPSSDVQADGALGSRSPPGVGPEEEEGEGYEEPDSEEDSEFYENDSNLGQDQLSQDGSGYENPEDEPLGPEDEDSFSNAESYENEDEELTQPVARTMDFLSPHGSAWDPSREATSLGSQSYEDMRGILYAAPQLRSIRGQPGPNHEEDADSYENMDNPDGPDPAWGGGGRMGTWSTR
notes: Endogenous protein in tissue section
- binding result [1]: binds

B2: MLH1 (other, UniProt P40692 2-756, looked up)
chain: SFVAGVIRRLDETVVNRIAAGEVIQRPANAIKEMIENCLDAKSTSIQVIVKEGGLKLIQIQDNGTGIRKEDLDIVCERFTTSKLQSFEDLASISTYGFRGEALASISHVAHVTITTKTADGKCAYRASYSDGKLKAPPKPCAGNQGTQITVEDLFYNIATRRKALKNPSEEYGKILEVVGRYSVHNAGISFSVKKQGETVADVRTLPNASTVDNIRSIFGNAVSRELIEIGCEDKTLAFKMNGYISNANYSVKKCIFLLFINHRLVESTSLRKAIETVYAAYLPKNTHPFLYLSLEISPQNVDVNVHPTKHEVHFLHEESILERVQQHIESKLLGSNSSRMYFTQTLLPGLAGPSGEMVKSTTSLTSSSTSGSSDKVYAHQMVRTDSREQKLDAFLQPLSKPLSSQPQAIVTEDKTDISSGRARQQDEEMLELPAPAEVAAKNQSLEGDTTKGTSEMSEKRGPTSSNPRKRHREDSDVEMVEDDSRKEMTAACTPRRRIINLTSVLSLQEEINEQGHEVLREMLHNHSFVGCVNPQWALAQHQTKLYLLNTTKLSEELFYQILIYDFANFGVLRLSEPAPLFDLAMLALDSPESGWTEEDGPKEGLAEYIVEFLKKKAEMLADYFSLEIDEEGNLIGLPLLIDNYVPPLEGLPIFILRLATEVNWDEEKECFESLSKECAMFYSIRKQYISEESTLSGQQSEVPGSIPNSWKWTVEHIVYKALRSHILPPKHFTEDGNILQLANLPDLYKVFERC
notes: Endogenous protein of Hela cells in xenograft
- binding result (PMS2): binds

B3: E-cadherin (other, UniProt P12830 155-882, looked up)
chain: DWVIPPISCPENEKGPFPKNLVQIKSNKDKEGKVFYSITGQGADTPPVGVFIIERETGWLKVTEPLDRERIATYTLFSHAVSSNGNAVEDPMEILITVTDQNDNKPEFTQEVFKGSVMEGALPGTSVMEVTATDADDDVNTYNAAIAYTILSQDPELPDKNMFTINRNTGVISVVTTGLDRESFPTYTLVVQAADLQGEGLSTTATAVITVTDTNDNPPIFNPTTYKGQVPENEANVVITTLKVTDADAPNTPAWEAVYTILNDDGGQFVVTTNPVNNDGILKTAKGLDFEAKQQYILHVAVTNVVPFEVSLTTSTATVTVDVLDVNEAPIFVPPEKRVEVSEDFGVGQEITSYTAQEPDTFMEQKITYRIWRDTANWLEINPDTGAISTRAELDREDFEHVKNSTYTALIIATDNGSPVATGTGTLLLILSDVNDNAPIPEPRTIFFCERNPKPQVINIIDADLPPNTSPFTAELTHGASANWTIQYNDPTQESIILKPKMALEVGDYKINLKLMDNQNKDQVTTLEVSVCDCEGAAGVCRKAQPVEAGLQIPAILGILGGILALLILILLLLLFLRRRAVVKEPLLPPEDDTRDNVYYYDEEGGGEEDQDFDLSQLHRGLDARPEVTRNDVAPTLMSVPRYLPRPANPDEIGNFIDENLKAADTDPTAPPYDSLLVFDYEGSGSEAASLSSLNSSESDKDQDYDYLNEWGNRFKKLADMYGGGEDD
notes: Endogenous protein in tissue section; also called E-cadherein
- binding result (β-catenin): binds
